Results from US20100239571A1 (Seagen, published 2010).
Changes are numbered by the printed parent chain.

T1: CD30 surface antigen expressed on Karpas-299 (human, UniProt P28908 19-595)
T1 construct: whole, on cells; also called human CD30
T1 sequence (looked up): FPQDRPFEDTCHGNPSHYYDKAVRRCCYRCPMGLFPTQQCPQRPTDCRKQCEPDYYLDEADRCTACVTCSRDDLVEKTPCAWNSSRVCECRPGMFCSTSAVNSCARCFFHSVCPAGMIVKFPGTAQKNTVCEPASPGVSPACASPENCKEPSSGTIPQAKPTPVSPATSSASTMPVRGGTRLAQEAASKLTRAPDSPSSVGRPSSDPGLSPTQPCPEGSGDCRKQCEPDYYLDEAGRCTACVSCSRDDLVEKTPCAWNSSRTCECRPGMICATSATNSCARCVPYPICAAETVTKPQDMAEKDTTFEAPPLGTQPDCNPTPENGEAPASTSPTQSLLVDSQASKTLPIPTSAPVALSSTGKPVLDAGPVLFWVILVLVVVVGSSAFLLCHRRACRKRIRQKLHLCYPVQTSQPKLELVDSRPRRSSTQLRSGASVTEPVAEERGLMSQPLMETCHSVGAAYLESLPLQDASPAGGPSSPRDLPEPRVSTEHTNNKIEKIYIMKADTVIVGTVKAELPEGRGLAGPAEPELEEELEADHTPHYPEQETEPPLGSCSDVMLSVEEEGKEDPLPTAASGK

B1: hAC10 HALA (antibody, human IgG1, kappa, V domains shown)
VH: QVQLVQSGAEVKKPGASVKVSCKASGYTFTDYYITWVRQAPGQGLEWMGWIYPGSGNTKYNEKFKGRVTMTVDTSISTAYMELSRLRSDDTAVYFCANYGNYWFAYWGQGTLVTVSS
VL: DIVMTQSPDSLAVSLGERATINCKASQSVDFDGDSYMNWYQQKPGQPPKLLIYAASNLESGVPDRFSGSGSGTDFTLTISSLQAEDVAVYYCQQSNEDPWTFGQGTKVEIKR
notes: The name HALA is read as heavy variant A plus light variant A; also called humanized AC10 variant HALA; hVH A + hVL A
B2: hAC10 HALB (antibody, human IgG1, kappa, V domains shown)
VH: B1 VH
VL: B1 VL with A25S
notes: Human IgG1 / kappa; also called humanized AC10 variant HALB; hVH A + hVL B
B3: hAC10 HALC (antibody, human IgG1, kappa, V domains shown)
VH: B1 VH
VL: B1 VL with M37L
notes: Human IgG1 / kappa; also called humanized AC10 variant HALC; hVH A + hVL C
B4: hAC10 HALD (antibody, human IgG1, kappa, V domains shown)
VH: B1 VH
VL: B1 VL with A25S, M37L
notes: Human IgG1 / kappa; also called humanized AC10 variant HALD; hVH A + hVL D
B5: hAC10 HBLA (antibody, human IgG1, kappa, V domains shown)
VH: B1 VH with V72R
VL: B1 VL
notes: Human IgG1 / kappa; also called humanized AC10 variant HBLA; hVH B + hVL A
B6: hAC10 HCLA (antibody, human IgG1, kappa, V domains shown)
VH: B1 VH with F95Y
VL: B1 VL
notes: Human IgG1 / kappa; also called humanized AC10 variant HCLA; hVH C + hVL A
B7: hAC10 HDLA (antibody, human IgG1, kappa, V domains shown)
VH: B1 VH with V72R, F95Y
VL: B1 VL
notes: Human IgG1 / kappa; also called humanized AC10 variant HDLA; antibody HDLA
B8: hAC10 HDLD (antibody, human IgG1, kappa, V domains shown)
VH: B1 VH with V72R, F95Y
VL: B1 VL with A25S, M37L
notes: Human IgG1 / kappa; also called humanized AC10 variant HDLD; hVH D + hVL D
B9: cAC10 (CHO) (antibody, V domains shown)
VH: QVQLVQSGAEVVKPGASVKVSCKASGYTFTDYYITWVRQAPGQGLEWMGWIYPGSGNTKYNEKFKGKATLTVDTSSSTAFMQLSSLTSEDTAVYFCANYGNYWFAYWGQGTQVTVSA
VL: DIVLTQSPASLAVSLGQRATISCKASQSVDFDGDSYMNWYQQKPGQPPKVLIYAASNLESGIPARFSGSGSGTDFTLNIHPVEEEDAATYYCQQSNEDPWTFGGGTKLEIK
notes: Human-murine chimeric AC10 expressed in CHO cells; also called chimeric AC10; chimeric monoclonal antibody AC10

How the values were obtained:
[1] = target: T1, CD30 surface antigen expressed on …; assay: competition binding on Karpas 299 cells against europium-labeled cAC10
Method: (§1) The variants were tested for binding to CD30 surface antigen expressed on Karpas-299, an anaplastic large cell lymphoma cell line, using a competition binding assay in which cAC10, expressed in CHO cells, was europium labeled (see, e.g., Law et al., Cancer Research 65:8331-38 (2005)). The results, shown below in the second column of Table 6, indicate that all of the variants were able to compete with cAC10 for binding to CD30. Thus, the variants retained antigen binding activity.

[2] = target: T1, CD30 surface antigen expressed on …; assay: competition binding on Karpas 299 cells against europium-labeled cAC10 (control competitor)
Method: as §1

Row | Binder | EC50 [1] [nM] | EC50 [2] [nM]
1 | B1 | 6.61 | –
2 | B2 | 5.9 | –
3 | B3 | 3.53 | –
4 | B4 | 6 | –
5 | B5 | 3.31 | –
6 | B6 | 3.61 | –
7 | B7 | 3.1 | –
8 | B8 | 2.25 | –
9 | B9 | – | 2.9
